Measurements as given in article PMC3091828 (Biochemistry, 2011).

Molecular target: MBP-parkin (UniProt O60260 1-465)
Assay: fluorescence polarisation

MBP-parkin, sequence (O60260 whole entry): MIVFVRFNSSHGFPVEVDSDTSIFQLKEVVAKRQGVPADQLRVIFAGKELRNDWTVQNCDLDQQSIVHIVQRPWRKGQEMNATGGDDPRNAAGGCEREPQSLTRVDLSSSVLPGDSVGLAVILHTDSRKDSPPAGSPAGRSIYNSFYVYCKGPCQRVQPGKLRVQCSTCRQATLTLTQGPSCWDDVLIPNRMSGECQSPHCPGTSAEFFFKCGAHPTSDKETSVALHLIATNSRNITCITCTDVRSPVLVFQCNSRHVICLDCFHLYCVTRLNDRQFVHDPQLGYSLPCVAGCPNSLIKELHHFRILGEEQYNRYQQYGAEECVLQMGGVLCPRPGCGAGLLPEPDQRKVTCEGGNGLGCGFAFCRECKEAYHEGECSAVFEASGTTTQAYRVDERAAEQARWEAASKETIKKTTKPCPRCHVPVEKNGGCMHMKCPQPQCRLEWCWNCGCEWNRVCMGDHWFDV

| Binder | Kd |
| --- | --- |
| CL-arrestin-1-F79C, bimane-labeled (natural protein, monobromobimane label on the unique cysteine (F79C)) MKANKPAPNHVIFKKISRDKSVTIYLGKRDYIDHVERVEPVDGVVLVDPELVKGKRVYVSLTAAFRYGQEDIDVMGLSCRRDLYFSQVQVFPPVGASGATTRLQESLIKKLGANTYPFLLTFPDYLPSSVMLQPAPQDVGKSAGVDFEIKAFATHSTDVEEDKIPKKSSVRLLIRKVQHAPRDMGPQPRAEASWQFFMSDKPLRLAVSLSKEIYYHGEPIPVTVAVTNSTEKTVKKIKVLVEQVTNVVLYSSDYYIKTVAAEEAQEKVPPNSSLTKTLTLVPLLANNRERRGIALDGKIKHEDTNLASSTIIKEGIDKTVMGILVSYQIKVKLTVSGLLGELTSSEVATEVPFRLMHPQPEDPDTAKESFQDENFVFEEFARQNLKDAGEYKEEKTDQEAAMDE | 15.5 µM |
| CL-arrestin-3-F88C, bimane-labeled (natural protein, UniProt P32120-2 1-409, looked up, monobromobimane label on the unique cysteine (F88C)) MGEKPGTRVFKKSSPNSKLTVYLGKRDFVDHLDKVDPVDGVVLVDPDYLKDRKVFVTLTVAFRYGREDLDVLGLSFRKDLFIANYQACPPTPNPPRPPTRLQERLLRKLGQHAHPFFFTIPQNLPSSVTLQPGPEDTGKALGVDFEIRAFVAKSLEEKSHKRNSVRLVIRKVQFAPEKPGPQPSAETTRHFLMSDRSLHLEASLDKELYYHGEPLNVNVHVTNNSTKTVKKIKVSVRQYADIVLFSTAQYKVPVAQVEQDDQVSPSSTFSKVYTITPLLSNNREKRGLALDGKLKHEDTNLASSTIVKEGANKEVLGILVSYRVKVKLVVSRGGDVSVELPFVLMHPKPHDHIALPRPQSAAPETDAPVDTNLIEFETNYATDDDIVFEDFARLRLKGLKDEDYDDQFS | 3.36 µM |
